Reference: PMC4649674, “Structural insights into HetR−PatS interaction involved in cyanobacterial pattern formation” (Scientific Reports, 2015)
Changes are numbered by the printed parent chain.

Key:
[1] = target: PatS5 (Nostoc sp. PCC 7120); settings: cited from earlier work
[2] = target: PatS6 (Nostoc sp. PCC 7120); settings: cited from earlier work
HetR = settings: cited from earlier work
Excerpt: Heterocyst pattern was first speculated to be controlled by a pentapeptide RGSGR (designated as PatS5), a motif which was identified first as the C-terminal five residues of PatS[16], and later within a putative ketoacyl reductase HetN[17].

[3] = system: E253D mutant strain (hetR); parameters: method as in PMID 21942265; settings: in vivo; cited from earlier work
[4] = target: T1, HetR double mutant D270A/D278A (Nostoc sp., UniProt P27709, D270A/D278A); assay: ITC binding of PatS6 to HetR double mutant D270A/D278A; parameters: species or system Anabaena sp. PCC 7120; settings: 25 °C, 1 M NaCl, 5% (v/v) glycerol, 10 mM Tris-Cl, pH 7.8, protein 50 μM, PatS6 750 μM
T1 construct: 15 times (150 or 750 μM) to that of the full-length protein or 40 times (2 mM) to that of HetRHood; six-histidine tag (N); made in house; host or cells: Escherichia coli Rosetta (DE3)
T1 sequence (P27709 whole entry D270A/D278A): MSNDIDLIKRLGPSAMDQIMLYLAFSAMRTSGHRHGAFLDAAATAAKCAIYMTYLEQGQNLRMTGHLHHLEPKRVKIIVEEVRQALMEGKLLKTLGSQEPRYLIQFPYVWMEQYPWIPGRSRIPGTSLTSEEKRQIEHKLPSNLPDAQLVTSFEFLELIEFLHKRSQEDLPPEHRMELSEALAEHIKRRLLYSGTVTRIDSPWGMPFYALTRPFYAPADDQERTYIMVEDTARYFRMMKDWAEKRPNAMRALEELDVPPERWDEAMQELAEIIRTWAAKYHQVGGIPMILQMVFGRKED
Protocol: (§1) The selenium-methionine-labeled HetR (SeMet HetR) was expressed in E. coli strain B834 (DE3) (Novagen, Madison). Transformed cells were first cultured in 2 × YT medium at 37 °C overnight, then harvested and washed twice with the M9 medium. Then the cells were cultured in SeMet medium (M9 medium with 50 mg/l SeMet and other essential amino acids at 50 mg/l) to an OD600 nm of approximately 1.0. The following steps in protein expression and purification were the same as those for the native protein. Site-directed mutagenesis was performed using the QuickChange site-directed mutagenesis kit (Stratagene, La Jolla) with the plasmid encoding the wild-type HetR as the template. The mutant protein was expressed, purified and stored in the same manner as the wild-type protein.
(§2) The related Kd values are
(§3) calculated and shown above the figures. ND stands for “not detectable”.

HetR mutant E253A = target: T2, HetR mutant E253A (Nostoc sp., UniProt P27709, E253A); assay: ITC binding of PatS6 to HetR mutant E253A; parameters: species or system Anabaena sp. PCC 7120; settings: 25 °C, 1 M NaCl, 5% (v/v) glycerol, 10 mM Tris-Cl, pH 7.8, protein 50 μM, PatS6 750 μM
T2 construct: 15 times (150 or 750 μM) to that of the full-length protein or 40 times (2 mM) to that of HetRHood; six-histidine tag (N); made in house; host or cells: Escherichia coli Rosetta (DE3)
T2 sequence (P27709 whole entry E253A): as the sequence (P27709 whole entry D270A/D278A) above, with E253A, A270D, A278D counted along it
Protocol: as §1, §2, §3

HetR D278A = target: T3, HetR D278A (Anabaena sp. PCC 7120, UniProt P27709 1-299, D278A); assay: ITC; iTC200, 25 °C; protein in the sample cell (10 or 50 μM), PatS6 in the syringe (150 or 750 μM; 2 mM for HetR_(Hood)); 1 M NaCl, 5% (v/v) glycerol, 10 mM Tris-Cl, pH 7.8; settings: both partners purified
T3 construct: HetR of Anabaena sp; PCC 7120, point mutant made from the plasmid of wild-type HetR; source: E. coli, purified in the same manner as the wild-type protein
T3 sequence (looked up): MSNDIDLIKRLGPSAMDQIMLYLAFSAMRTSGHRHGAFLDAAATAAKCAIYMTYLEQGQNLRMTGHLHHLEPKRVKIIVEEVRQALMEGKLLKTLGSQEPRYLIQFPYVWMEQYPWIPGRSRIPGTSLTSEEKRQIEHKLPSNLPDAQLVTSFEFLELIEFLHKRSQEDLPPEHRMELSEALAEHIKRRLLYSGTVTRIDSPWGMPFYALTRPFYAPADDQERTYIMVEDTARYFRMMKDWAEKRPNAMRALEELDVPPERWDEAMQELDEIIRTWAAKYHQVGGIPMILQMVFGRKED

HetR D270A = target: T4, HetR D270A (Anabaena sp. PCC 7120, UniProt P27709 1-299, D270A); assay: as above; settings: both partners purified
T4 construct: HetR of Anabaena sp; PCC 7120, point mutant made from the plasmid of wild-type HetR; source: E. coli, purified in the same manner as the wild-type protein
T4 sequence (looked up): T3 sequence (looked up) with D270A, A278D

HetR R223W = target: T5, HetR R223W (Anabaena sp. PCC 7120, UniProt P27709 1-299, R223W); assay: as above; settings: both partners purified
T5 construct: HetR of Anabaena sp; PCC 7120, point mutant made from the plasmid of wild-type HetR; source: E. coli, purified in the same manner as the wild-type protein
T5 sequence (looked up): T3 sequence (looked up) with R223W, A278D

[5] = target: T6, HetR (wild type, full-length) from Anabaena sp. PCC 7120 (Anabaena sp. PCC 7120, UniProt P27709 1-299); assay: as above; settings: both partners purified
T6 construct: HetR, transcription factor of Anabaena sp; PCC 7120; DBD 1-98, flap domain 99-216, hood domain 217-299; Intertwined homodimer in the crystal with 21-bp hetP promoter DNA; A SeMet-labelled form (E. coli B834) was used for phasing only; also called wild-type HetR; full-length HetR; source: E. coli Rosetta (DE3), purified (Ni-NTA, Superdex 75)
T6 sequence (looked up): T3 sequence (looked up) with A278D

HetR D256A = target: T7, HetR D256A (Anabaena sp. PCC 7120, UniProt P27709 1-299, D256A); assay: as above; settings: both partners purified
T7 construct: HetR of Anabaena sp; PCC 7120, point mutant made from the plasmid of wild-type HetR; source: E. coli, purified in the same manner as the wild-type protein
T7 sequence (looked up): T3 sequence (looked up) with D256A, A278D

HetR E254A = target: T8, HetR E254A (Anabaena sp. PCC 7120, UniProt P27709 1-299, E254A); assay: as above; settings: both partners purified
T8 construct: HetR of Anabaena sp; PCC 7120, point mutant made from the plasmid of wild-type HetR; source: E. coli, purified in the same manner as the wild-type protein
T8 sequence (looked up): T3 sequence (looked up) with E254A, A278D

[6] = target: T9, HetR hood domain (Asp219-Asp299), HetR_(Hood) (Anabaena sp. PCC 7120, UniProt P27709 219-299); assay: as above; settings: both partners purified
T9 construct: HetR of Anabaena sp; PCC 7120, individual hood domain, residues Asp219-Asp299; Entwined dimer in the crystal; four molecules (two dimers) in the asymmetric unit; source: E. coli Rosetta (DE3), purified (Ni-NTA, Superdex 75)
T9 sequence (looked up): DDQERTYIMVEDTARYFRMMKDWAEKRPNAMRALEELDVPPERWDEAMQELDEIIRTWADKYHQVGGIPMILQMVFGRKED

## HetR (from UniProt P27709)
[1]
  Kd: 0.227 µM
[2]
  Kd: 0.007 µM

## RGSGR [PatS5, pentapeptide RGSGR, C-terminal five residues of PatS]
HetR
  effect of PatS5 binding on DNA-binding capacity of HetR: may abolish the DNA-binding capacity of HetR
HetR; in vitro binding assays
  molecules bound per HetR homodimer: two
[3]
  sensitivity of E253D mutant strain to PatS5: drastically reduced sensitivity to PatS5

## N=C(N)NCCC[C@H](NC(=O)CNC(=O)[C@H](CO)NC(=O)CNC(=O)[C@H](CCCNC(=N)N)NC(=O)[C@@H](N)CCC(=O)O)C(=O)O [PatS6]
[4]
  binding affinity towards D270A/D278A: no detectable binding affinity
HetR mutant E253A
  PatS6-binding affinity towards E253A: totally abolished the PatS6-binding affinity

B1: PatS6 (PatS-derived hexapeptide ERGSGR) (peptide)
peptide: ERGSGR
notes: PatS-derived hexapeptide; RGSGR is the C-terminal five residues of PatS of Anabaena sp; PCC 7120; source: synthetic peptide (GL Biochem, Shanghai)
HetR D278A
  Kd: 1.63 µM
HetR D270A
  Kd: 2.25 µM
HetR R223W
  Kd: 2.35 µM
[5]
  Kd: 0.012 µM
HetR D256A
  Kd: 0.427 µM
HetR E254A
  Kd: 0.091 µM
[6]
  Kd: 24 µM
